Like-named read-outs stand apart in the source and are kept apart here.
Legend:
[1] = target: actin in thin filaments (mouse (endogenous in C57BL/6 ventricular myofibrils)) (UniProt P68033)
[2] = target: actin in thin filaments (mouse (endogenous in C57BL/6 ventricular myofibrils)) (UniProt P68033); remark: listed apart in the source

k3 (rate of dissociation of XBs from thin filaments, with ATP) [1]: 0.0492 s⁻¹ | k3 (rate of dissociation of XBs from thin filaments, with ATP) [2]: 0.061 s⁻¹
Substance: myosin cross-bridge (from UniProt Q02566 1-1938; P09542 1-204; P51667 1-166) (complex)

From article PMC4262935
